From article PMC12619835, “KLF5 enables dichotomous lineage programs in pancreatic cancer via the AAA+ ATPase coactivators RUVBL1 and RUVBL2” (Nature Communications, 2025)

Target: T1, RUVBL1/2 hetero-hexamer (purified, recombinant) (UniProt Q9Y265 1-456; Q9Y230 1-463)
T1 construct: RUVBL1; RUVBL2, untagged; Printed as a hetero-hexamer; also called RUVBL1/2 complex; source: E. coli BL21, co-expressed, purified (Ni-NTA, TEV cleavage, SEC on Superose 6); not shown: His6, N-terminal, cleaved
Assay: pull-down; MBP-KLF5 (10 μg) or MBP (5 μg) on amylose resin; 10 μg RUVBL1, 10 μg RUVBL2 or 20 μg RUVBL1/2 hetero-hexamer added for 2 h in 50 mM Na3PO4 pH 7.5, 0.1 mM EDTA, 200 mM NaCl, 1 mM DTT, 5% glycerol; washes with 250 mM NaCl; maltose elution; Western blot; 4 °C
Details: both partners purified

T1 sequence (Q9Y265 whole entry, chain 1 of 2): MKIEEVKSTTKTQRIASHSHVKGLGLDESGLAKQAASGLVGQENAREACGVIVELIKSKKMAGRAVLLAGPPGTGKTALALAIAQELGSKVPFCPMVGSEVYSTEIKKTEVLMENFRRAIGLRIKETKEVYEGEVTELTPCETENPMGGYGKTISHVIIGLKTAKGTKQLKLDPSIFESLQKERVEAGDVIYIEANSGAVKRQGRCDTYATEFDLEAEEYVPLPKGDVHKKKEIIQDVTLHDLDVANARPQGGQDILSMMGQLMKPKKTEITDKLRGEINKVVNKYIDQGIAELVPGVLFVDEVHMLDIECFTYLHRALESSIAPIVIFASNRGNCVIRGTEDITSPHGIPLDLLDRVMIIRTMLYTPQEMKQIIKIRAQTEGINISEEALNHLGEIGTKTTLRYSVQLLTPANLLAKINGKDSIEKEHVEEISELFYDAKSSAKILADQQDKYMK
T1 sequence (Q9Y230 whole entry, chain 2 of 2): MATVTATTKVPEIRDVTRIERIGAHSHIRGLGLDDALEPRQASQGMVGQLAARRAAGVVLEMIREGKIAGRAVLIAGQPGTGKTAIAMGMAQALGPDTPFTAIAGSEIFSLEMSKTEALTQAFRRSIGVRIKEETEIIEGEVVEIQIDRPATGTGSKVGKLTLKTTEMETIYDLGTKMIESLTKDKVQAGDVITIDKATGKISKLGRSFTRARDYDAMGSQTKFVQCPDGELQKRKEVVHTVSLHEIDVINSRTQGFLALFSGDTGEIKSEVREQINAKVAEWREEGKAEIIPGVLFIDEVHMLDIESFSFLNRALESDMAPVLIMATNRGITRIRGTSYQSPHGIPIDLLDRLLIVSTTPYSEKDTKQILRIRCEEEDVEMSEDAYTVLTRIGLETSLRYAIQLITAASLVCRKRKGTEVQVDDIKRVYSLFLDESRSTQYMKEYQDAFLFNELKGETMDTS

binding result: binds
B1: recombinant MBP-tagged KLF5 (natural protein)
chain: not shown
notes: KLF5; For the pull-down with pure proteins the MBP-KLF5 was not previously subject to the amylose purification; also called MBP-KLF5; 6xHis-TEV-MBP-KLF5; source: E. coli BL21-CodonPlus (DE3)-RIPL, purified (Ni-NTA, TEV cleavage, SEC; also amylose resin for the mass spectrometry experiments); not shown: His6, N-terminal, cleaved; MBP, N-terminal, kept
